Broadly, the kcat is the number of substrate molecules converted per active site and unit of time at saturation. One may read the KM as the substrate concentration at which the rate is half of its maximum.

The text below walks through data of the supplement of paper PMC7125110.

B1: glmS ribozyme (parent)
chain: AUAAAAGCGCCAGAACUACAGAAAUGUAGUUGACGAGGAGGAGGUUUAUCGAAUUUUCGGCGGAUGCCUCCAAA

± gives the standard error. For some of these results: Variants at the floor of the assay were thinned out.

Common to all, as to settings: with glucosamine-6-phosphate
The variants in data set [1] derive from B1. In words: kcat; higher = faster cleavage; RNA array. A digest of the protocol: (§1)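 Over ~14 h at 37 °C, tiles were imaged as glucosamine-6-phosphate (40 μM to 10 mM) in HEPES/KCl/Mg(OAc)2 buffer flowed across sequenced MiSeq chips. The chips carried barcoded ribozyme variants transcribed in situ by E. coli RNA polymerase and tracked with a hybridised Cy3 probe. After normalisation to baseline and to non-cleaving reference variants, one- or two-exponential decay fits of per-tile medians gave kobs. kcat and KM followed from weighted Michaelis–Menten fits across concentrations.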

The variants in data set [2] derive from B1. In words: KM; higher = weaker cofactor use; RNA array. A digest of the protocol: as §1
Variants of B1 are the subject of data set [3]. In words: self-cleavage kobs at 640 uM GlcN6P; higher = faster cleavage; RNA array. A digest of the protocol: as §1
The variants in data set [4] derive from B1. In words: self-cleavage kobs at 2500 uM GlcN6P; higher = faster cleavage; RNA array. A digest of the protocol: as §1
In data set [5] the parent is B1. In words: self-cleavage kobs at 10000 uM GlcN6P; higher = faster cleavage; RNA array. In a few lines: as §1
Variants of B1 are the subject of data set [6]. In words: self-cleavage kobs at 40 uM GlcN6P; higher = faster cleavage; RNA array. A digest of the protocol: as §1
Variants of B1 are the subject of data set [7]. In words: self-cleavage kobs at 160 uM GlcN6P; higher = faster cleavage; RNA array. A digest of the protocol:
as §1

As to G29C G40U, in the data set with glucosamine-6-phosphate [1], the kcat was determined as 0.000193 ± 6.2e-06 s⁻¹. The KM in the data set with glucosamine-6-phosphate [2] worked out at 1880 ± 150 µM. For the same variant, the “self-cleavage kobs at 640 uM GlcN6P” value with glucosamine-6-phosphate [3] was 5.1e-05 ± 8.7e-06 s⁻¹. Besides, in the data set with glucosamine-6-phosphate [4], the “self-cleavage kobs at 2500 uM GlcN6P” value is 0.000106 ± 1.3e-05 s⁻¹. Also, the “self-cleavage kobs at 10000 uM GlcN6P” value with glucosamine-6-phosphate [5] came out at 0.000165 ± 1.5e-05 s⁻¹.
The corresponding values for A12G U69G are 7.83e-05 ± 2.6e-06 s⁻¹, 285 ± 71 µM, 5.05e-05 ± 1.9e-05 s⁻¹, 7.46e-05 ± 1.5e-05 s⁻¹ and 7.47e-05 ± 1.1e-05 s⁻¹.
G59A C67G: the kcat with glucosamine-6-phosphate [1] was determined as 1.27e-05 ± 2.9e-06 s⁻¹.
Turning to G29A A48C, the kcat in the data set with glucosamine-6-phosphate [1] was 3.13e-05 ± 8.9e-06 s⁻¹. Moreover, the “self-cleavage kobs at 2500 uM GlcN6P” value in the data set with glucosamine-6-phosphate [4] is 3.4e-05 ± 1.6e-05 s⁻¹.
Regarding C16U G32U U69A, the kcat with glucosamine-6-phosphate [1] came to 9.39e-05 ± 2e-05 s⁻¹. Also, the “self-cleavage kobs at 640 uM GlcN6P” value with glucosamine-6-phosphate [3] is 9.19e-05 ± 1.8e-05 s⁻¹. In addition, the “self-cleavage kobs at 10000 uM GlcN6P” value with glucosamine-6-phosphate [5] is 0.000104 ± 1.9e-05 s⁻¹.
For G38A U69G, the kcat with glucosamine-6-phosphate [1] stood at 3.24e-05 ± 5.7e-06 s⁻¹. Besides, the “self-cleavage kobs at 2500 uM GlcN6P” value with glucosamine-6-phosphate [4] is 3.53e-05 ± 1.3e-05 s⁻¹.
For A15C G32C A53C, the catalytic constant (kcat) with glucosamine-6-phosphate [1] came to 2.15e-05 ± 1.1e-06 s⁻¹.
Regarding A6C C16G U31C C34G C68A, in the data set with glucosamine-6-phosphate [1], the kcat is 1.74e-05 ± 6.6e-06 s⁻¹.
Take G7A U54C: the kcat in the data set with glucosamine-6-phosphate [1] came to 1.94e-05 ± 3.6e-06 s⁻¹.
On to U30G C71A, for which, in the data set with glucosamine-6-phosphate [1], the kcat turned out to be 0.00126 ± 0.0004 s⁻¹. For the same variant, the KM with glucosamine-6-phosphate [2] was determined as 1140 ± 560 µM. Besides, the “self-cleavage kobs at 40 uM GlcN6P” value with glucosamine-6-phosphate [6] was 7.85e-05 ± 1.2e-05 s⁻¹. Besides, the “self-cleavage kobs at 160 uM GlcN6P” value in the data set with glucosamine-6-phosphate [7] worked out at 0.000138 ± 2.2e-05 s⁻¹. Further, in the data set with glucosamine-6-phosphate [3], the “self-cleavage kobs at 640 uM GlcN6P” value is 0.000344 ± 6.7e-05 s⁻¹. Besides, in the data set with glucosamine-6-phosphate [4], the “self-cleavage kobs at 2500 uM GlcN6P” value was determined as 0.00096 ± 0.00014 s⁻¹. Further, the “self-cleavage kobs at 10000 uM GlcN6P” value with glucosamine-6-phosphate [5] amounted to 0.00119 ± 0.00018 s⁻¹.
In the case of A15G G37A, the kcat with glucosamine-6-phosphate [1] was 0.00317 ± 0.0014 s⁻¹. Besides, the “self-cleavage kobs at 40 uM GlcN6P” value in the data set with glucosamine-6-phosphate [6] came out at 8.19e-05 ± 9.7e-06 s⁻¹. In addition, the “self-cleavage kobs at 160 uM GlcN6P” value with glucosamine-6-phosphate [7] stood at 0.000154 ± 2.7e-05 s⁻¹. In addition, the “self-cleavage kobs at 640 uM GlcN6P” value in the data set with glucosamine-6-phosphate [3] came to 0.000515 ± 7.3e-05 s⁻¹. The “self-cleavage kobs at 2500 uM GlcN6P” value with glucosamine-6-phosphate [4] was found to be 0.00123 ± 0.00023 s⁻¹. Besides, the “self-cleavage kobs at 10000 uM GlcN6P” value with glucosamine-6-phosphate [5] was 0.00292 ± 0.00037 s⁻¹.
G62A: the kcat with glucosamine-6-phosphate [1] was less than 1e-05 s⁻¹. In addition, the “self-cleavage kobs at 40 uM GlcN6P” value with glucosamine-6-phosphate [6] is less than 1e-05 s⁻¹. Besides, the “self-cleavage kobs at 10000 uM GlcN6P” value with glucosamine-6-phosphate [5] is less than 1e-05 s⁻¹.
For G51U C58G, in the data set with glucosamine-6-phosphate [1], the kcat came to 1.13e-05 ± 4.5e-06 s⁻¹. In addition, the “self-cleavage kobs at 40 uM GlcN6P” value in the data set with glucosamine-6-phosphate [6] is less than 1e-05 s⁻¹. Moreover, the “self-cleavage kobs at 640 uM GlcN6P” value in the data set with glucosamine-6-phosphate [3] was less than 1e-05 s⁻¹. Moreover, in the data set with glucosamine-6-phosphate [5], the “self-cleavage kobs at 10000 uM GlcN6P” value was less than 1e-05 s⁻¹.
As to C50U G66U C70G, the kcat with glucosamine-6-phosphate [1] was 4.59e-05 ± 1.9e-05 s⁻¹.
Turning to A39G A53G C67G, in the data set with glucosamine-6-phosphate [1], the kcat turned out to be 0.00302 ± 0.001 s⁻¹. The “self-cleavage kobs at 40 uM GlcN6P” value with glucosamine-6-phosphate [6] was 0.000234 ± 7.2e-05 s⁻¹. Moreover, the “self-cleavage kobs at 160 uM GlcN6P” value in the data set with glucosamine-6-phosphate [7] was found to be 0.000647 ± 0.00024 s⁻¹. For the same variant, the “self-cleavage kobs at 640 uM GlcN6P” value with glucosamine-6-phosphate [3] turned out to be 0.00135 ± 0.00029 s⁻¹. In the data set with glucosamine-6-phosphate [4], the “self-cleavage kobs at 2500 uM GlcN6P” value was 0.00536 ± 0.0012 s⁻¹. Also, in the data set with glucosamine-6-phosphate [5], the “self-cleavage kobs at 10000 uM GlcN6P” value is 0.00257 ± 0.00072 s⁻¹.
For G35A C50G U69A, the catalytic constant (kcat) with glucosamine-6-phosphate [1] was 0.000277 ± 5.3e-05 s⁻¹. For the same variant, in the data set with glucosamine-6-phosphate [6], the “self-cleavage kobs at 40 uM GlcN6P” value was determined as 0.000149 ± 3.4e-05 s⁻¹. For the same variant, the “self-cleavage kobs at 160 uM GlcN6P” value in the data set with glucosamine-6-phosphate [7] was 0.000465 ± 0.00015 s⁻¹. Moreover, in the data set with glucosamine-6-phosphate [3], the “self-cleavage kobs at 640 uM GlcN6P” value stood at 0.000501 ± 0.00021 s⁻¹. Moreover, the “self-cleavage kobs at 2500 uM GlcN6P” value with glucosamine-6-phosphate [4] turned out to be 0.000206 ± 7.8e-05 s⁻¹. Also, the “self-cleavage kobs at 10000 uM GlcN6P” value with glucosamine-6-phosphate [5] stood at 0.000278 ± 5.3e-05 s⁻¹.
On to U30G U65G, for which the kcat in the data set with glucosamine-6-phosphate [1] turned out to be 0.00191 ± 0.00048 s⁻¹. Besides, the KM in the data set with glucosamine-6-phosphate [2] stood at 3590 ± 1400 µM. Besides, the “self-cleavage kobs at 160 uM GlcN6P” value in the data set with glucosamine-6-phosphate [7] turned out to be 8.07e-05 ± 1.4e-05 s⁻¹. Also, in the data set with glucosamine-6-phosphate [3], the “self-cleavage kobs at 640 uM GlcN6P” value was found to be 0.000378 ± 6e-05 s⁻¹. In the data set with glucosamine-6-phosphate [4], the “self-cleavage kobs at 2500 uM GlcN6P” value worked out at 0.000614 ± 0.0001 s⁻¹. Moreover, the “self-cleavage kobs at 10000 uM GlcN6P” value with glucosamine-6-phosphate [5] amounted to 0.00155 ± 0.00019 s⁻¹.
As to C10U U69A, in the data set with glucosamine-6-phosphate [1], the catalytic constant (kcat) worked out at 1.11e-05 ± 3.7e-06 s⁻¹.
For the variant U45A C68U, in the data set with glucosamine-6-phosphate [1], the kcat stood at 0.0022 ± 0.00039 s⁻¹. The KM with glucosamine-6-phosphate [2] was 1080 ± 320 µM. The “self-cleavage kobs at 40 uM GlcN6P” value with glucosamine-6-phosphate [6] came out at 7.41e-05 ± 1.2e-05 s⁻¹. For the same variant, in the data set with glucosamine-6-phosphate [7], the “self-cleavage kobs at 160 uM GlcN6P” value came out at 0.000537 ± 0.00012 s⁻¹. In addition, the “self-cleavage kobs at 640 uM GlcN6P” value with glucosamine-6-phosphate [3] is 0.000729 ± 0.00013 s⁻¹. Also, the “self-cleavage kobs at 2500 uM GlcN6P” value with glucosamine-6-phosphate [4] was 0.00176 ± 0.00032 s⁻¹. Besides, the “self-cleavage kobs at 10000 uM GlcN6P” value with glucosamine-6-phosphate [5] amounted to 0.00194 ± 0.00027 s⁻¹.
C10U C67G: the kcat with glucosamine-6-phosphate [1] amounted to 2.65e-05 ± 6.6e-06 s⁻¹. Moreover, the “self-cleavage kobs at 2500 uM GlcN6P” value with glucosamine-6-phosphate [4] amounted to 2.88e-05 ± 1.1e-05 s⁻¹.
Regarding U56G C68G, in the data set with glucosamine-6-phosphate [1], the kcat amounted to 6.61e-05 ± 1e-05 s⁻¹. Also, the “self-cleavage kobs at 2500 uM GlcN6P” value in the data set with glucosamine-6-phosphate [4] stood at 2.78e-05 ± 1.4e-05 s⁻¹. For the same variant, the “self-cleavage kobs at 10000 uM GlcN6P” value with glucosamine-6-phosphate [5] came to 5.46e-05 ± 8.1e-06 s⁻¹.
